# From PMC12193154, “Effect of Mutations in the C-Terminal 22–24 Domains of Filamin C Associated with Cardio- and Myopathies on Its Interaction with Small Heat Shock Protein HspB7” (International Journal of Molecular Sciences, 2025)
# B1: wild-type (WT) C-terminal fragment of human filamin C (FLNC) containing immunoglobulin-like domains 22-24 (domain or fragment, UniProt Q14315 2403-2725, looked up)
# chain: SLSDDARRLTVTSLQETGLKVNQPASFAVQLNGARGVIDARVHTPSGAVEECYVSELDSDKHTIRFIPHENGVHSIDVKFNGAHIPGSPFKIRVGEQSQAGDPGLVSAYGPGLEGGTTGVSSEFIVNTLNAGSGALSVTIDGPSKVQLDCRECPEGHVVTYTPMAPGNYLIAIKYGGPQHIVGSPFKAKVTGPRLSGGHSLHETSTVLVETVTKSSSSRGSSYSSIPKFSSDASKVVTRGPGLSQAFVGQKNSFTVDCSKAGTNMMMVGVHGPKTPCEEVYVKHMGNRVYNVTYTVKEKGDYILIVKWGDESVPGSPFKVKVP
# notes: human filamin C (FLNC), Uniprot Q14315, immunoglobulin-like domains 22-24, amino acid residues 2403-2725; Dimer by SEC and cross-linking; also called WT FLNC; WT FLNC fragment; source: recombinant, expressed and purified as described earlier [23]; (ion-exchange and size-exclusion chromatography)
# B2: ΔPGL mutant (p.P2643_L2645del) of the FLNC fragment containing immunoglobulin-like domains 22-24 (domain or fragment, human, UniProt Q14315 2403-2725, looked up)
# chain: SLSDDARRLTVTSLQETGLKVNQPASFAVQLNGARGVIDARVHTPSGAVEECYVSELDSDKHTIRFIPHENGVHSIDVKFNGAHIPGSPFKIRVGEQSQAGDPGLVSAYGPGLEGGTTGVSSEFIVNTLNAGSGALSVTIDGPSKVQLDCRECPEGHVVTYTPMAPGNYLIAIKYGGPQHIVGSPFKAKVTGPRLSGGHSLHETSTVLVETVTKSSSSRGSSYSSIPKFSSDASKVVTRGSQAFVGQKNSFTVDCSKAGTNMMMVGVHGPKTPCEEVYVKHMGNRVYNVTYTVKEKGDYILIVKWGDESVPGSPFKVKVP
# notes: human filamin C (FLNC), Uniprot Q14315, residues 2403-2725, with deletion of the tripeptide 2643-PGL-2645 (mutation associated with restrictive cardiomyopathy); also called ΔPGL FLNC; c.7927_7935del; source: recombinant, expressed and purified as described earlier [23]; (ion-exchange and size-exclusion chromatography)
# B3: EN/D mutant (p.Glu2472_Asn2473delinsAsp) of the FLNC fragment containing immunoglobulin-like domains 22-24 (domain or fragment, human, UniProt Q14315 2403-2725, looked up)
# chain: SLSDDARRLTVTSLQETGLKVNQPASFAVQLNGARGVIDARVHTPSGAVEECYVSELDSDKHTIRFIPHDGVHSIDVKFNGAHIPGSPFKIRVGEQSQAGDPGLVSAYGPGLEGGTTGVSSEFIVNTLNAGSGALSVTIDGPSKVQLDCRECPEGHVVTYTPMAPGNYLIAIKYGGPQHIVGSPFKAKVTGPRLSGGHSLHETSTVLVETVTKSSSSRGSSYSSIPKFSSDASKVVTRGPGLSQAFVGQKNSFTVDCSKAGTNMMMVGVHGPKTPCEEVYVKHMGNRVYNVTYTVKEKGDYILIVKWGDESVPGSPFKVKVP
# notes: human filamin C (FLNC), Uniprot Q14315, residues 2403-2725, with Glu2472 and Asn2473 replaced by Asp (mutation associated with restrictive cardiomyopathy); also called c.7416_7418delGAA; source: recombinant, expressed and purified as described earlier [23]; (ion-exchange and size-exclusion chromatography)
# Columns and labels:
# [1] = molecular target: the molecule itself; test: SEC; isolated FLNC fragments, 0.1 mg in 100 µL, Superdex 200 10/300, 0.5 mL/min, 50 mM Na-phosphate pH 7.4, 150 mM NaCl, 0.1 mM EDTA, 0.1 mM PMSF, 2 mM DTT, room temperature; apparent molecular weights from column calibration
# [2] = molecular target: T1, α-crystallin domain of HspB7 (AcdB7) containing residues 77-155 (UniProt Q9UBY9 77-155); test: native gel or EMSA; fixed HspB7 (25 or 30 µM) or AcdB7 (35 µM) in 20 mM Tris-acetate pH 7.6, 100 mM NaCl titrated with 0-120 µM FLNC fragment, 30 min at 30 °C; native 12.5% polyacrylamide gel, Tris-glycine pH 8.6; band intensities, semi quantitative, apparent affinity; conditions: both partners purified
# T1 construct: small heat shock protein HspB7, α-crystallin domain, residues 77-155; source: recombinant, expressed and purified as described earlier [25,34]
# T1 sequence (Q9UBY9 77-155): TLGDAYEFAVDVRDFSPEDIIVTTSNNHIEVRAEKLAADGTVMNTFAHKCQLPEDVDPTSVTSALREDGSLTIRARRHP
# [3] = molecular target: T2, small heat shock protein HspB7 (full-size) (UniProt Q9UBY9 1-170); test: as above; conditions: both partners purified
# T2 construct: small heat shock protein HspB7, full-size; also called full-size HspB7; full-length HspB7; source: recombinant, expressed and purified as described earlier [25,34]
# T2 sequence (Q9UBY9 whole entry): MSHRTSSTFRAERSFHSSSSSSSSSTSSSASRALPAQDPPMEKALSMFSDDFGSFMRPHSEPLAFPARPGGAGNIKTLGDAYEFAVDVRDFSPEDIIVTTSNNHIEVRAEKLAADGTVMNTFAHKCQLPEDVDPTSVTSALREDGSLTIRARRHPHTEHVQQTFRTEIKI
# [4] = molecular target: the molecule itself; test: cross-linking; isolated proteins or equimolar mixture, 30 min at 30 °C in 25 mM HEPES/NaOH pH 7.4, 100 mM NaCl, 2 mM DTT, then 0.0125% glutaraldehyde 30 min at 30 °C; SDS gel and anti-HspB7 immunoblot
Binder,stoichiometry N [1],EC50 [2] [µM],stoichiometry N [2],EC50 [3] [µM],stoichiometry N [3] [HspB7/FLNC],stoichiometry N [4]
B1,2,~20,1,~10,2,–
B2,–,–,–,–,–,2
B3,2,~20,1,~10,2,–
